Assays:
[1] = target: STREPTACTIN® (mutated streptavidin molecule) (Streptomyces avidinii, UniProt P22629, E68V/S69T/V71R); conditions: biotin-binding site of STREPTACTIN; read-out: binding affinity (Kd); cited from earlier work
[2] = target: HLA-A2m monomer in ternary complex with binding peptide Mart-1 26-35L (human); assay: fluorimetric plate assay, avidin-coated plate, 40 min at room temperature; 0.5 µg/ml antibody, 0.5 µg/ml monomer
[3] = target: HLA-A2m monomer in ternary complex with binding peptide Mart-1 26-35L (human); assay: fluorimetric plate assay, avidin-coated plate, 40 min at room temperature; 1 µg/ml antibody, 0.5 µg/ml monomer

Sequence of STREPTACTIN® (mutated streptavidin molecule) (P22629 38-163 E68V/S69T/V71R): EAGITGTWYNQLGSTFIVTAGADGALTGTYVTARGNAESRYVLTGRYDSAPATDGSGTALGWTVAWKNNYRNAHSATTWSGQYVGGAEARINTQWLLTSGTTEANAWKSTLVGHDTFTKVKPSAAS

| Fluorescence units (FU) [2] | Fluorescence units (FU) [3] | Substance | Kd [1] |
| --- | --- | --- | --- |
| – | – | short peptide sequence binding the biotin-binding site of a mutated streptavidin molecule (STREPTACTIN) [streptagII] | ~1000 nM |
| 300 FU | 600 FU | Anti-HLA-class I monoclonal antibody conjugated to FITC (clone: B9.12.1) | – |

Reference: patent US8815528B2, “Methods and systems for detecting MHC class I binding peptides” (Beckman Coulter, Inc., priority 2002, dated 2014)
